In paper PMC3836750, “A Novel Antibody Humanization Method Based on Epitopes Scanning and Molecular Dynamics Simulation” (PLoS ONE, 2013):
Changes are numbered by the printed parent chain. Blank lines part the entries; values can stand above or below the molecule they belong to.

Experiments:
[1] = molecular target: refined 1-17-2 antibody (humanized antibody with back mutation of the 5 key residues L38, L43, L45, L71 and H77) (rat | human); assay: SPR; BIACORE T200, CM5 chip; antibody captured on immobilized anti-human IgG (Fc) (human antibody capture kit); DEC-S solution passed through, 6 concentrations; regeneration 3 M magnesium chloride; KD = kd/ka
[2] = molecular target: T1, DEC-205 protein (DEC-S) (Homo sapiens, UniProt O60449); assay: SPR; BIACORE T200, CM5 chip; murine (rat) antibody immobilized by amine coupling; DEC-205 protein 500 to 15.625 nM, 240 sec injection at 30 µl/min, 600 sec dissociation; regeneration Glycine-HCl pH 2.5; KD = kd/ka; conditions: both partners purified
T1 construct: DEC-205 protein in solution (DEC-S) used as SPR analyte; DEC-S is probably a soluble form of DEC-205

[3] = molecular target: T1, DEC-205 protein (DEC-S); assay: SPR; BIACORE T200, CM5 chip; antibody captured on immobilized anti-human IgG (Fc) (human antibody capture kit); DEC-S solution passed through, 6 concentrations; regeneration 3 M magnesium chloride; KD = kd/ka; conditions: both partners purified

T1 sequence (O60449 28-1722): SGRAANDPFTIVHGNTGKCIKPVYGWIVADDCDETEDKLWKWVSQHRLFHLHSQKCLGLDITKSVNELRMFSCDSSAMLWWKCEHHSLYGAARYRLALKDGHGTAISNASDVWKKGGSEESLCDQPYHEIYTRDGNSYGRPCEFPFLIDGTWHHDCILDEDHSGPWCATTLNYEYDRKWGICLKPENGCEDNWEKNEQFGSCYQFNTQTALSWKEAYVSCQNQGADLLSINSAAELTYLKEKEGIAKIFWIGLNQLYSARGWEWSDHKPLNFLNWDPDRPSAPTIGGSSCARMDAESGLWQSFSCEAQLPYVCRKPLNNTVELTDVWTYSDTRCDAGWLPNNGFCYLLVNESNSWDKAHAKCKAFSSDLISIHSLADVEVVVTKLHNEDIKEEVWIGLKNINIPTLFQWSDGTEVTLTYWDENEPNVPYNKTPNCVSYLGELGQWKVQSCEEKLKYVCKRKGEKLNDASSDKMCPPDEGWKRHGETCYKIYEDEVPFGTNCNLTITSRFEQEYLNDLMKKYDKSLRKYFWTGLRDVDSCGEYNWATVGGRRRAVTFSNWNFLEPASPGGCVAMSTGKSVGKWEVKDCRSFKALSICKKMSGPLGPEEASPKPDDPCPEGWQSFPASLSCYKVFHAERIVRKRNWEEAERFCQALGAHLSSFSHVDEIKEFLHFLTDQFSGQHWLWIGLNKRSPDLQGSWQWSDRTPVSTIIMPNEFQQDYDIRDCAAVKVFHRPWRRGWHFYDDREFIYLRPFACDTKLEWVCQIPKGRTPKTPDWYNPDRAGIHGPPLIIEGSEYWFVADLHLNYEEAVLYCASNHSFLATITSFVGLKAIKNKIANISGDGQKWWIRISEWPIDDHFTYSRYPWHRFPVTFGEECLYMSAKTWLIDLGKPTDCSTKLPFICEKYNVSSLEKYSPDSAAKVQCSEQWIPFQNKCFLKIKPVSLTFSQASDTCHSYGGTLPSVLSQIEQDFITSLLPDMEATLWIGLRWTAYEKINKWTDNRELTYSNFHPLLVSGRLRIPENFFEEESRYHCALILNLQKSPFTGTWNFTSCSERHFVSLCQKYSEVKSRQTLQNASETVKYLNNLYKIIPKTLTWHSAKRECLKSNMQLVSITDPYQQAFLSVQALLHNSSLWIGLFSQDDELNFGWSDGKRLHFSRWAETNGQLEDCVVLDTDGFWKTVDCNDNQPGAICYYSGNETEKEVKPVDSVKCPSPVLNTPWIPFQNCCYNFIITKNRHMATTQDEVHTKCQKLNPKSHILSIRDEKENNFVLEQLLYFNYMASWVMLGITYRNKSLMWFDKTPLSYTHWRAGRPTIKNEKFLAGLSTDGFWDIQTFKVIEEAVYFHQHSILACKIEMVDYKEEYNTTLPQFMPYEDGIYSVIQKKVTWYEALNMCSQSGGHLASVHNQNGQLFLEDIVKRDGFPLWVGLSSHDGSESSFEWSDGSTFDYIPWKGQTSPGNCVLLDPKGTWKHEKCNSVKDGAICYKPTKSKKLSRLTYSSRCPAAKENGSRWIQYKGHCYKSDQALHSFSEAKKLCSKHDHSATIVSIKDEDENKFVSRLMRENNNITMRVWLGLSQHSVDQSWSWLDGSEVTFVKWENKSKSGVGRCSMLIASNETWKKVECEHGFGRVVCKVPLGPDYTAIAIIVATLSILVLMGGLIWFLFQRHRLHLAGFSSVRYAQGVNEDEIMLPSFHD

Molecule: DEC-205 protein (DEC-S) (from UniProt O60449 28-1722) (receptor)
Kd [1]: 0.0167 µM
koff [1]: 0.000137 s⁻¹
kon [1]: 8220 M⁻¹ s⁻¹

B1: 1-17-2 rat anti-human DEC-205 monoclonal antibody (antibody, V domains shown)
VH: EVQLVESGGGLVQPGRSLKLSCAASGFTFSHYYMAWVRQAPTKGLEWVAYISTDGGTTYYRDSVKGRFTISRDNARSTLYLQVDSLRSEDTATYYCTTGQPGYNLDYFDYWGQGVMVTVSS
VL: DIQMTQSPASLSASLEEIVTITCQASQDIGYWLAWYQLKPGKSPQLLIYGATSLADGVSSRFSGSRSGTQYSLKISRLQVEDIGIYYCQQASSVPWTFGGGTKLELK
notes: VH of rat antibody 1-17-2; rat IgG1 heavy chain constant region (isotype IgG1 stated); VL of rat antibody 1-17-2; rat kappa light chain constant region (isotype kappa stated); Rat IgG1, kappa; also called Rat Ab; rat mAb; source: expressed in vitro and purified; hybridoma 1-17-2 from rats immunized with DEC-1-YB2/0 cells
Kd [2]: 0.0297 µM
koff [2]: 0.000185 s⁻¹
kon [2]: 6290 M⁻¹ s⁻¹

The remaining lines, values ahead:

Kd [3]: 0.373 µM
koff [3]: 0.00105 s⁻¹
kon [3]: 2930 M⁻¹ s⁻¹
B2: humanized 1-17-2 antibody (30 mutations based on the chimeric antibody) (antibody, V domains shown)
VH: B1 VH with K19R, T42G, A75S, R76K, S77N, V83M, D84N, T93V, V115T, M116L
VL: DIQMTQSPSSLSASVGDRVTITCQASQDIGYWLAWYQQKPGKAPKLLIYGATSLADGVPSRFSGSGSGTDFTLTISSLQPEDFATYYCQQASSVPWTFGGGTKLEIK
notes: human heavy chain constant region contained in the MH vector; human light chain constant region contained in the MK vector; Humanized VL and VH fragments were synthesized; also called Hu Ab; humanized antibody

Kd [3]: 0.0354 µM
koff [3]: 0.000273 s⁻¹
kon [3]: 8040 M⁻¹ s⁻¹
B3: chimeric 1-17-2 antibody (variable regions of 1-17-2 with constant regions of a human antibody) (antibody, V domains shown)
VH: B1 VH
VL: B1 VL
notes: as the VH of m1; human heavy chain constant region contained in the MH vector; as the VL of m1; human light chain constant region contained in the MK vector; Captured by anti-human IgG (Fc) in SPR, so a human IgG; Vectors MH and MK from Dr. Linqi Zhang; also called Chi Ab; chimeric antibody
